Test results as given in patent publication US20220010008A1.
Positions count from the first letter of the chain named. Several values for one entry are separate records, joined by “and”; a condition that tells them apart may be missing. Equal entries are not always repeated. Values belong to the binder of their own block, whether it stands above or below them.

Legend:
[1] = biological target: recombinant human IL-5 protein (human) (UniProt P05113); experiment: FACS blocking: biotin-IL-5 bound to CHOK1 IL-5Ra/CSF2RB cells, Ab 0.0107 nM
[2] = biological target: recombinant human IL-5 protein (human) (UniProt P05113); experiment: FACS blocking: biotin-IL-5 bound to CHOK1 IL-5Ra/CSF2RB cells, Ab 1.3333 nM
[3] = biological target: recombinant human IL-5 protein (human) (UniProt P05113); experiment: FACS blocking: biotin-IL-5 bound to CHOK1 IL-5Ra/CSF2RB cells, Ab 0.0533 nM
[4] = biological target: recombinant human IL-5 protein (human) (UniProt P05113); experiment: ELISA, biotin-human IL-5 on streptavidin plate, Ab 0.0043 nM
[5] = biological target: recombinant human IL-5 protein (human) (UniProt P05113); experiment: ELISA, biotin-human IL-5 on streptavidin plate, Ab 2.6667 nM
[6] = biological target: recombinant human IL-5 protein (human) (UniProt P05113); experiment: cell-based or functional assay
[7] = biological target: recombinant human IL-5 protein (human) (UniProt P05113); experiment: ELISA, biotin-human IL-5 on streptavidin plate, Ab 13.3333 nM
[8] = biological target: recombinant human IL-5 protein (human) (UniProt P05113); experiment: ELISA, biotin-human IL-5 on streptavidin plate, Ab 0.1067 nM
[9] = biological target: recombinant human IL-5 protein (human) (UniProt P05113); experiment: ELISA, biotin-human IL-5 on streptavidin plate, Ab 0.0009 nM
[10] = biological target: recombinant human IL-5 protein (human) (UniProt P05113); experiment: FACS blocking: biotin-IL-5 bound to CHOK1 IL-5Ra/CSF2RB cells, Ab 33.3333 nM
[11] = biological target: recombinant human IL-5 protein (human) (UniProt P05113); experiment: ELISA, biotin-human IL-5 on streptavidin plate, Ab 0.0002 nM
[12] = biological target: recombinant human IL-5 protein (human) (UniProt P05113); experiment: FACS blocking: biotin-IL-5 bound to CHOK1 IL-5Ra/CSF2RB cells, Ab 6.6667 nM
[13] = biological target: recombinant human IL-5 protein (human) (UniProt P05113); experiment: FACS blocking: biotin-IL-5 bound to CHOK1 IL-5Ra/CSF2RB cells, Ab 0.2667 nM
[14] = biological target: recombinant human IL-5 protein (human) (UniProt P05113); experiment: FACS blocking: biotin-IL-5 bound to CHOK1 IL-5Ra/CSF2RB cells, Ab 0.0004 nM
[15] = biological target: recombinant human IL-5 protein (human) (UniProt P05113); experiment: ELISA, biotin-human IL-5 on streptavidin plate, Ab 0.0213 nM
[16] = biological target: recombinant human IL-5 protein (human) (UniProt P05113); experiment: FACS blocking: biotin-IL-5 bound to CHOK1 IL-5Ra/CSF2RB cells, Ab 0.0021 nM
[17] = biological target: recombinant human IL-5 protein (human) (UniProt P05113); experiment: SPR, human IL-5 immobilized on CM5 chip, chimeric antibody as analyte, 1:1 global fit
[18] = biological target: recombinant human IL-5 protein (human) (UniProt P05113); experiment: ELISA, biotin-human IL-5 on streptavidin plate, Ab 0.5333 nM

- Fluorescence intensity [1]: 86 MFI
- Fluorescence intensity [2]: 52 MFI
- Fluorescence intensity [3]: 94 MFI
- OD450 nm [4]: 0.172 OD450 nm and 0.156 OD450 nm
- OD450 nm [5]: 3.22 OD450 nm and 3.35 OD450 nm
- RLU, CTLL-2 proliferation with IL-5, Ab 0.000170667 nM [6]: 50700 RLU and 51700 RLU
- RLU, CTLL-2 proliferation with IL-5, Ab 0.000853333 nM [6]: 50800 RLU and 50700 RLU
- RLU, CTLL-2 proliferation with IL-5, Ab 0.004266667 nM [6]: 41400 RLU and 48200 RLU
- RLU, CTLL-2 proliferation with IL-5, Ab 0.02133333 nM [6]: 33800 RLU and 36400 RLU
- RLU, CTLL-2 proliferation with IL-5, Ab 0.1066667 nM [6]: 12700 RLU and 13200 RLU
- RLU, CTLL-2 proliferation with IL-5, Ab 0.5333334 nM [6]: 9570 RLU and 10400 RLU
- RLU, CTLL-2 proliferation with IL-5, Ab 2.666667 nM [6]: 8620 RLU and 8160 RLU
- RLU, CTLL-2 proliferation with IL-5, Ab 13.33333 nM [6]: 7310 RLU and 6690 RLU
- RLU, CTLL-2 proliferation with IL-5, Ab 66.66666 nM [6]: 5230 RLU and 5240 RLU
- RLU, CTLL-2 proliferation with IL-5, Ab 3.41333E-05 nM [6]: 56100 RLU and 52200 RLU
- RLU, TF-1 proliferation with IL-5, Ab 0.00001 nM [6]: 99500 RLU and 101000 RLU
- RLU, TF-1 proliferation with IL-5, Ab 0.00003 nM [6]: 100000 RLU and 95000 RLU
- RLU, TF-1 proliferation with IL-5, Ab 0.00017 nM [6]: 96400 RLU and 88800 RLU
- RLU, TF-1 proliferation with IL-5, Ab 0.00085 nM [6]: 89200 RLU and 82900 RLU
- RLU, TF-1 proliferation with IL-5, Ab 0.00427 nM [6]: 56700 RLU and 54800 RLU
- RLU, TF-1 proliferation with IL-5, Ab 0.02133 nM [6]: 45300 RLU and 43900 RLU
- RLU, TF-1 proliferation with IL-5, Ab 0.10667 nM [6]: 39000 RLU and 38700 RLU
- RLU, TF-1 proliferation with IL-5, Ab 0.53333 nM [6]: 36400 RLU and 40100 RLU
- RLU, TF-1 proliferation with IL-5, Ab 2.66667 nM [6]: 34800 RLU and 41200 RLU
- RLU, TF-1 proliferation with IL-5, Ab 13.33333 nM [6]: 35700 RLU and 39000 RLU
- OD450 nm [7]: 3.44 OD450 nm and 3.72 OD450 nm
- OD450 nm [8]: 1.25 OD450 nm and 1.3 OD450 nm
- OD450 nm [9]: 0.102 OD450 nm and 0.104 OD450 nm
- Fluorescence intensity [10]: 31 MFI
- OD450 nm [11]: 0.103 OD450 nm and 0.101 OD450 nm
- Fluorescence intensity [12]: 36 MFI
- Fluorescence intensity [13]: 76 MFI
- Fluorescence intensity [14]: 94 MFI
- OD450 nm [15]: 0.406 OD450 nm and 0.385 OD450 nm
- Fluorescence intensity [16]: 88 MFI
- Kd [17]: < 0.0637 nM
- koff [17]: < 1e-05 s⁻¹
- kon [17]: 157000 M⁻¹ s⁻¹
- OD450 nm [18]: 2.74 OD450 nm and 2.91 OD450 nm
B1: 147D7H2 mouse-human chimeric antibody (antibody, human IgG4, V domains shown)
VH: EVQLQQSGAELVKPGASVKLSCTASGFNIKDYFIHWVKQRTEQGLEWIGRIDTEDGETKYAPKFQGKATITIDTSSNTAYLYFSSLTSEDTAMYYCARYGNYVAMDYWGQGTSVTVSS
VL: QIVLTQSPALMSASPGEKVTMTCSASSSVSYMFWYQQKPSSSPKPWIYLTSKLASGVPARFSGSGSGTSYSLTISSVEAEDAATYYCQQWNSNPYTFGGGTKLEIK

- Fluorescence intensity [1]: 85 MFI
- Fluorescence intensity [2]: 41 MFI
- Fluorescence intensity [3]: 82 MFI
- OD450 nm [4]: 0.194 OD450 nm and 0.244 OD450 nm
- OD450 nm [5]: 3.47 OD450 nm and 3.5 OD450 nm
- RLU, CTLL-2 proliferation with IL-5, Ab 0.000170667 nM [6]: 47900 RLU and 63200 RLU
- RLU, CTLL-2 proliferation with IL-5, Ab 0.000853333 nM [6]: 54300 RLU and 63000 RLU
- RLU, CTLL-2 proliferation with IL-5, Ab 0.004266667 nM [6]: 51200 RLU and 58000 RLU
- RLU, CTLL-2 proliferation with IL-5, Ab 0.02133333 nM [6]: 41700 RLU and 43900 RLU
- RLU, CTLL-2 proliferation with IL-5, Ab 0.1066667 nM [6]: 10900 RLU and 10300 RLU
- RLU, CTLL-2 proliferation with IL-5, Ab 0.5333334 nM [6]: 8370 RLU and 8250 RLU
- RLU, CTLL-2 proliferation with IL-5, Ab 2.666667 nM [6]: 6580 RLU and 7940 RLU
- RLU, CTLL-2 proliferation with IL-5, Ab 13.33333 nM [6]: 5750 RLU and 5810 RLU
- RLU, CTLL-2 proliferation with IL-5, Ab 66.66666 nM [6]: 3690 RLU and 4030 RLU
- RLU, CTLL-2 proliferation with IL-5, Ab 3.41333E-05 nM [6]: 46800 RLU and 55000 RLU
- RLU, TF-1 proliferation with IL-5, Ab 0.00001 nM [6]: 95500 RLU and 93900 RLU
- RLU, TF-1 proliferation with IL-5, Ab 0.00003 nM [6]: 89800 RLU and 92600 RLU
- RLU, TF-1 proliferation with IL-5, Ab 0.00017 nM [6]: 76600 RLU and 80400 RLU
- RLU, TF-1 proliferation with IL-5, Ab 0.00085 nM [6]: 66300 RLU and 74200 RLU
- RLU, TF-1 proliferation with IL-5, Ab 0.00427 nM [6]: 41500 RLU and 46000 RLU
- RLU, TF-1 proliferation with IL-5, Ab 0.02133 nM [6]: 38600 RLU and 44100 RLU
- RLU, TF-1 proliferation with IL-5, Ab 0.10667 nM [6]: 41600 RLU and 38800 RLU
- RLU, TF-1 proliferation with IL-5, Ab 0.53333 nM [6]: 36400 RLU and 36800 RLU
- RLU, TF-1 proliferation with IL-5, Ab 2.66667 nM [6]: 38400 RLU and 36800 RLU
- RLU, TF-1 proliferation with IL-5, Ab 13.33333 nM [6]: 36200 RLU and 33500 RLU
- OD450 nm [7]: 3.7 OD450 nm and 3.52 OD450 nm
- OD450 nm [8]: 1.87 OD450 nm and 1.92 OD450 nm
- OD450 nm [9]: 0.127 OD450 nm and 0.114 OD450 nm
- Fluorescence intensity [10]: 28 MFI
- OD450 nm [11]: 0.098 OD450 nm and 0.127 OD450 nm
- Fluorescence intensity [12]: 33 MFI
- Fluorescence intensity [13]: 68 MFI
- Fluorescence intensity [14]: 95 MFI
- OD450 nm [15]: 0.622 OD450 nm and 0.678 OD450 nm
- Fluorescence intensity [16]: 90 MFI
- Kd [17]: < 0.0637 nM
- koff [17]: < 1e-05 s⁻¹
- kon [17]: 157000 M⁻¹ s⁻¹
- OD450 nm [18]: 3.03 OD450 nm and 2.93 OD450 nm
B2: 151G3B11 mouse-human chimeric antibody (antibody, human IgG4, V domains shown)
VH: EVHLQQSGAELVKPGASVKLSCTASGFNIKDYYMHWVKQRTEQGLEWIGRIDPEDGETKYAPKFQGQATITADTSSNTANLQLSSLTSEDTAVYYCARYGNFPDYWGPGTTLTVSS
VL: B1 VL with F33Y, S40R, V77M
